Results as given in patent US20240076386A1 (Pfizer, published 2024).
Blank lines part the entries; values can stand above or below the binder they belong to.

Columns and labels:
[1] = molecular target: T1, cynomolgus monkey E-selectin extracellular domain with 10 His purification tail (cynomolgus monkey, UniProt P16581 22-554 (human entry)); test: AlphaLISA competition vs sialyl Lewis A-PAA-biotin; AlphaLISA neutralization assay (ligand competition), not SPR
T1 construct: also called cynomolgus E-selectin; truncated cynomolgus monkey E-selectin
T1 chain: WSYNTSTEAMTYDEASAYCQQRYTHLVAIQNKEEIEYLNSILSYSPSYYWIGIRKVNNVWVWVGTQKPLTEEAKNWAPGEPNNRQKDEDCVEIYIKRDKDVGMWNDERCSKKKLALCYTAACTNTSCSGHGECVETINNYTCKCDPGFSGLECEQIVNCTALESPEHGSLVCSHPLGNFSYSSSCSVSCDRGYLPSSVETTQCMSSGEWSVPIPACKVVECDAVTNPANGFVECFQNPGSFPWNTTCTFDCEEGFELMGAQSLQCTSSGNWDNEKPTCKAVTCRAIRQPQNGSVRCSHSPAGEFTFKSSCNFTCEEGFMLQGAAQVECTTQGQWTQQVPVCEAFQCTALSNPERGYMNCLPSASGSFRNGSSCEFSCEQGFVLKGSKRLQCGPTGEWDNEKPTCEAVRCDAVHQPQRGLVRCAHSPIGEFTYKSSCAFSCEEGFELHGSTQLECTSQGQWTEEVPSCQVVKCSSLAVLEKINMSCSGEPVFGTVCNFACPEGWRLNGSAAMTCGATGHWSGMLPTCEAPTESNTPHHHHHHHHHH
Method: The neutralization ability of anti-E-selectin antibodies was measured in an AlphaLISA homogenous competition assay. […] This was incubated at room temperature for 15 minutes, followed by addition of 1.4 μL of human, mouse or cynomolgus monkey E-selectin added to a final concentration of 7 nM. This was again incubated at room temperature for 15 minutes. To this, 1.4 μL AlphaLISA beads was added (Ni-donor/SA-acceptor) for a final assay concentration of 10 μg/mL. This was incubated in the dark at room temperate for at least 10 hours. The plates were then read using the AlphaLISA protocol (Envision).

[2] = molecular target: T2, recombinant histidine-tagged cynomolgus monkey E-selectin (Sino Biologicals; 190169-C08H) (cynomolgus monkey, UniProt A0A2K5U7H9 22-554); test: neutralization of sialyl Lewis A ligand binding, soluble recombinant protein, competition ELISA
T2 construct: also called recombinant cynomolgus monkey E-selectin
T2 sequence: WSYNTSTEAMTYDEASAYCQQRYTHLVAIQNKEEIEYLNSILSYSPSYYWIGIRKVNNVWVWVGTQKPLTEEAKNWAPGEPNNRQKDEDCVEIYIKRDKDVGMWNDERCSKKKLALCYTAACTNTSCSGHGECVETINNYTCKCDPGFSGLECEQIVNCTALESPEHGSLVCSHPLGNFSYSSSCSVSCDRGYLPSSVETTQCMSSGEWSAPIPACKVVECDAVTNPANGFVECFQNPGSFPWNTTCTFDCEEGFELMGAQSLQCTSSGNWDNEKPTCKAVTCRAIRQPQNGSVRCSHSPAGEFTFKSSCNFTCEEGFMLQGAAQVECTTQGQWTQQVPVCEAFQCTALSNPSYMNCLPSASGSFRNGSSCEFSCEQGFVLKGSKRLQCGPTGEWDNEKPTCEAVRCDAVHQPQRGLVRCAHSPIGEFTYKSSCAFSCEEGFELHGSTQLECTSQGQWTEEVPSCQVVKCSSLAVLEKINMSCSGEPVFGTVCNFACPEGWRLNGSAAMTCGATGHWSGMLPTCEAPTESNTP
Method: Recombinant histidine-tagged E-selectin; cynomolgus monkey E-selectin (Sino Biologicals; 190169-C08H) and human E-selectin (Sino Biologicals; 13025-H08H) stock solutions were prepared to a final concentration of 3 μg/mL in phosphate buffered saline (PBS) without calcium and magnesium. One hundred μL per well of the diluted recombinant E-selectin protein was added into a Ni-NTA HisSorb 96 well plate (Qiagen, 35061) and plates were incubated on an orbital shaker at room temperature for 2 hours. Sialyl Lewis A polyacrylamide biotin, a synthetic E-selectin ligand (GlycoTech corporation 01-044), was conjugated to streptavidin HRP (horse radish peroxidase) (Ultra Streptavidin HRP, Thermo Scientific N504) and diluted in assay diluent containing 2 mM calcium chloride (BD OptEIA buffer; BD Biosciences, 555213).

[3] = molecular target: T3, rabbit E-selectin (rabbit, UniProt P27113 24-495, limits assumed); test: SPR (BIAcore), single sensorgram per selectin
T3 sequence (looked up): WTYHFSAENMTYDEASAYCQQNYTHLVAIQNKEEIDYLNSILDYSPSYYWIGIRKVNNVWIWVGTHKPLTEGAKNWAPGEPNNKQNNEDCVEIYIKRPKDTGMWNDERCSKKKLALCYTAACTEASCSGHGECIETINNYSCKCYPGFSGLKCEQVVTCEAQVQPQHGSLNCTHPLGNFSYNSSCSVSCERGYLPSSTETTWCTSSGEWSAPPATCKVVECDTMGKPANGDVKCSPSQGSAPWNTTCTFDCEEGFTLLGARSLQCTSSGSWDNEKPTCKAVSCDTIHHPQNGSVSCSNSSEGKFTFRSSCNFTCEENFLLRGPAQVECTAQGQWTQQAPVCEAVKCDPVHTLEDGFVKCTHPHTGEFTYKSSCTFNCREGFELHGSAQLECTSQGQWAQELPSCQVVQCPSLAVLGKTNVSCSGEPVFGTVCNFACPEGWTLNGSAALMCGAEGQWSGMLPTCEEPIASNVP

EC50 [1]: < 1 nM
B1: anti-E-selectin antibody 0158 chimera (antibody, human IgG1, kappa, V domains shown)
VH: QVQLKESGPGLVQPSETLSLTCTVSGFSISTYNVHWLRQPPGKGLEWMGMMWSGGSPDYNSALKSRLSISRDTSKNQVFLKMNSLQSEDTTTYYCARWGGGFDYWGQGVMVTVSS
VL: DIVLTQSPTTLSVTPGETVSLSCRASHSIGTNLHWYQQKTNESPRLLIKFTSQSISGIPSRFSASGSGTDFTLNINNVEFDDVSSYFCQQTQSWPLTFGSGTKLEIKR
notes: rat VH/VL on effector-null human IgG1 and human kappa

IC50 [2]: 2.39 to 2.91 nM
binding result [3]: no binding
B2: optimized anti-E-selectin antibody 1444 (antibody, human IgG1, kappa, V domains shown)
VH: EVQLVESGGGLVQPGGSLRLSCAASGYAIRSAYMHWVRQAPGKGLEWVARIDPANGNTIYVDSVTGRFTISADNAKNSAYLQMNSLRAEDTAVYYCAMDLYSTSEYWGQGTLVTVSS
VL: DIQMTQSPSSLSASVGDRVTITCKTSQNIERYLNWYQQKPGKAPKLLIYAASSLQSGVPSRFSGSGSGTDFTLTISSLQPEDFATYFCLQDNAWPLTFGQGTKVEIKR
notes: effector-null human IgG1, kappa
